From paper PMC5670239, “Structural basis for mutually exclusive co-transcriptional nuclear cap-binding complexes with either NELF-E or ARS2” (Nature Communications, 2017) come the findings set out here.

One experiment addresses m^7GTP-CBCmut. Nature of the experiment: ITC, binding to mutated CBC in the presence of m^7GTP. Set-up: species or system human. To be noted: 25 °C, pH 7.8, CBCmut = CBP20 Y50A + CBP80 Y461A/R610E/H651A, with m^7GTP, mean ± SD of 2 experiments.
Experiment [1] concerns the target T1, m^7GTP-CBC (Homo sapiens, UniProt P52298+Q09161).
T1 construct: 6-histidine tag (pETM30 vector) (N, cleaved yes); made in house; host or cells: CBP20 in E. coli Rosetta 2; CBP80ΔNLS in High Five insect cells; heterodimer reconstituted on Ni-sepharose
T1 sequence (Q09161 20-790): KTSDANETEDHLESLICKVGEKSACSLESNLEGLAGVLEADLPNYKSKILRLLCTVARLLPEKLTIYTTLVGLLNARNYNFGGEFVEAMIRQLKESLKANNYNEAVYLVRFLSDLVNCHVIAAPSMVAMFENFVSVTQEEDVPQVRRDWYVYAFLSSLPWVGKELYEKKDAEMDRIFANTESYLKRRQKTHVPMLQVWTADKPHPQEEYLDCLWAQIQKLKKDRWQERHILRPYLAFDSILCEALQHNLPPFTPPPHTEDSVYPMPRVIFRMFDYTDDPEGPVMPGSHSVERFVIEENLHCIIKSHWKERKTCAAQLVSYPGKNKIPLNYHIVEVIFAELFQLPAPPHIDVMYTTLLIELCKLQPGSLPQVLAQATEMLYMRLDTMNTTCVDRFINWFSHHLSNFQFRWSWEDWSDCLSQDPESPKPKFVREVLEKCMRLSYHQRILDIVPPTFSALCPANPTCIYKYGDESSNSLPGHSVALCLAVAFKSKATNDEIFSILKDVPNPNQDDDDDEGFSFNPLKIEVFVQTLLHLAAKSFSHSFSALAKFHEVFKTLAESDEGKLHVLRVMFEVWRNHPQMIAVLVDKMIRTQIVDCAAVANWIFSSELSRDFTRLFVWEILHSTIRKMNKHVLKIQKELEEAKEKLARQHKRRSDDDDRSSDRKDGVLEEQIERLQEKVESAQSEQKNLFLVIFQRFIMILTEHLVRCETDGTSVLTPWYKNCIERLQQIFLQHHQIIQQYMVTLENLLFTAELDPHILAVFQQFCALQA
T1 sequence (P52298 1-156): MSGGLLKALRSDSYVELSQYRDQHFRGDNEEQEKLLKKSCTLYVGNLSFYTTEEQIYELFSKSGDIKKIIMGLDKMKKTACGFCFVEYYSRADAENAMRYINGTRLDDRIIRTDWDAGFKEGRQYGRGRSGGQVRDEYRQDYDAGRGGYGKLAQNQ
Kind of experiment: Fluorescence polarisation with FAM-labelled C-terminal peptides. The class given is binding. The note with it: competition; 40 nM FAM peptide, 60 nM CBC, 25 µM m^7GTP, 25 °C; n = 3. How it is done: Fig. 4 Incompatibility of ARS2-PHAX and NELF-E binding to CBC. a, b Competition on m^7GTP-sepharose. a In separate experiments, different amounts of ARS2^147–871 were added to preformed CBC–NELF–E complex immobilised on m^7GTP-sepharose. […] The fluorophore FAM is represented with a star. Note that different constructs of NELF-E and ARS2 were used in c, d, and e compared to f, g, and h and are therefore represented by slightly different shapes. Error bars show the SD of three experiments
Fluorescence anisotropy binding assays were performed with N-terminal FAM-labelled ARS2^845–871 and […] peptides. 40 nM peptides were titrated with increasing concentrations of proteins in 20 mM HEPES, pH 7.8, 120 mM NaCl, 2 mM tris(2-carboxyethyl)phosphine. For the competition assay CBC–ARS2 and CBC–NELF–E complexes were preformed in the presence of 25 µM m^7GTP using 40 nM ARS2^827–871(FAM) peptide together with 60 nM CBC and 40 nM NELF-E^354–380(FAM) peptide with 1 µM CBC. […] To observe a change in polarisation at reasonable protein concentrations, CBC and NELF-E^244–380 concentrations that saturate half of the FAM-labelled peptides were used to preform the individual complexes. Fluorescence polarisation was measured at 25 °C with a microplate reader (CLARIOstar BMG LABTECH) using an excitation wavelength of 495 nm and emission wavelength of 515 nm. For analysis the polarisation value for the peptide alone was subtracted from the measurements.
For orientation: Fluorescence polarisation rises when a labelled molecule tumbles more slowly, as on binding a larger partner.

The target of experiment [2] is T1, m^7GTP-CBC. Kind of experiment: ITC, binding to CBC in the presence of the cap analogue m^7GTP. To be noted: for Kd: ITC, 25 °C, 20 mM HEPES, 120 mM NaCl, 2 mM TCEP, pH 7.8, CBC bound to m^7GTP, mean ± SD of at least two independent experiments. The text has this:
(§1) hARS2 isoform-4 (871 residues, UniProt:Q9BXP5-4, also known as isoform-e, NP_001122326) constructs (residues 147–871, 147–845, 763–871, 763–845, 827–871) hNELF-E (NM_002904.5) (244–380, 244–360) and hPHAX (NM_032177.3) (1–394, 103–294, 103–308, 103–327) were cloned into pETM11 (EMBL). Full-length hNELF-E (1–380) was cloned into pFASTBac and CBP20 into pETM30. Primers used are given in Supplementary Table 2. All constructs were expressed in E. coli Rosetta 2 (Novagen), except full-length NELF-E and CBP80ΔNLS (CBP80 with residues 1–19 deleted[2]), which were expressed in High Five insect cells (Life Technology). Cells were harvested and lysed by sonication in lysis buffer containing 50 mM HEPES, pH 7.8, 300 mM NaCl, 10% (v/v) glycerol, 5 mM β-mercaptoethanol. Lysates were clarified by centrifugation and applied on an equilibrated Ni-sepharose column (GE Healthcare), washed with 20 mM imidazole in lysis buffer, and eluted with 300 mM imidazole in lysis buffer. While dialysing into 20 mM HEPES, pH 7.8, 120 mM NaCl, 10% (v/v) glycerol, 5 mM β-mercaptoethanol, the N-terminal 6-histidine-tag was cleaved with His-tagged Tobacco Etch Virus (TEV) protease overnight in a ratio 1:100 mg TEV per mg protein. The cleaved protein was further purified first on Ni-sepharose to remove TEV and then using an anion exchange column (HiTrap Q, GE Healthcare) followed if necessary by a Heparin column (GE Healthcare). In both cases a NaCl gradient from 50 to 800 mM in 20 mM HEPES 7.8, 0.5 mM tris(2-carboxyethyl)phosphine was used. To reconstitute the CBC heterodimer, cleared His-tagged CBP20 lysate was first immobilised on a Ni-sepharose column. After washing the column with lysis buffer, the cleared CBP80 lysate was applied to the column and further purification steps performed as described above. To remove the access of CBP20 the flow through of the Ni-column after TEV cleavage was loaded on an anion exchange column (HiTrap Q, GE Healthcare) and CBC eluted by a NaCl gradient as described above. In the text we refer to CBP80ΔNLS and CBP80ΔNLS-CBP20 as CBP80 and CBC, respectively. ARS2^845–871, NELF-E^354–380, and NELF-E^360–380 peptides, with or without FAM label at the N-terminus, were purchased from GenScript.

A further experiment deals with T2, CBC (Homo sapiens, UniProt P52298).
T2 sequence (P52298 1-156): T1 sequence (P52298 1-156)
T2 sequence (Q09161 20-790 partner): T1 sequence (Q09161 20-790)
Nature of the experiment: ITC, binding to CBC without cap analogue. The note with it: ITC (MicroCal ITC200), 25 °C, 20 mM HEPES, 120 mM NaCl, 2 mM TCEP, pH 7.8, single-site fit; no cap analogue pre-bound; mean ± SD of at least two independent experiments; SD.
Source text: as §1

Protocol for m^7GTP-CBCmut: For CBC, a triple mutant in CBP80 (Y461A/R610E/H651A) was combined with various mutations in CBP20 (Y50A, Y50A/Y89A, or Y50A/Y89A/D107R).
ITC experiments were performed on a MicroCal ITC200 system (Malvern). Proteins were dialyzed overnight in buffer 20 mM HEPES, 120 mM NaCl, 2 mM tris(2-carboxyethyl)phosphine, pH 7.8. Injections of 1.5 µl protein A were added at an interval of 120–180 s into 205 µl of protein B in the cell, with a stirring speed of 800 rpm at 25 °C. The experimental data were analysed with MicroCal ITC Origin and were fitted to a single-site binding equation.

B1: NELF-E 244–380: C-terminal human NELF-E fragment including the RRM domain, E. coli expressed (protein, UniProt P18615 244-380, looked up, fragment)
chain: GPFRRSDSFPERRAPRKGNTLYVYGEDMTPTLLRGAFSPFGNIIDLSMDPPRNCAFVTYEKMESADQAVAELNGTQVESVQLKVNIARKQPMLDAATGKSVWGSLAVQNSPKGCHRDKRTQIVYSDDVYKENLVDGF
Usually Kd stands for the free concentration of one partner at which half of the binding sites on the other are occupied at equilibrium, for simple one-to-one binding. Turning to B1, the “K D” value at m^7GTP-CBCmut was “completely abolished binding”. Besides, the “Change of polarisation on titration to m^7GTP-CBC-ARS2^845–871(FAM)” value with m^7GTP-CBC [1] is recorded as “decrease in polarisation”. Also, the dissociation constant Kd is approximately 40 nM with m^7GTP-CBC [2], 50 ± 10 nM with m^7GTP-CBC [2] (SD) and 400 ± 200 nM with CBC. The “Enhancement of the interaction with CBC when m^7GTP is bound” value with m^7GTP-CBC [2] (ratio of ITC K D without / with m^7GTP) is given as “eight times higher”.
